Laboratory results reported in US20100330094A1 (NOVIMMUNE S A, published 2010).

T1: hIP-10 immobilized on glycosaminoglycan (FITC-labeled heparin) (human, UniProt P02778 22-98)
T1 construct: mature; also called hIP-10 on GAG; hIP-10 immobilized on GAG
T1 sequence (looked up): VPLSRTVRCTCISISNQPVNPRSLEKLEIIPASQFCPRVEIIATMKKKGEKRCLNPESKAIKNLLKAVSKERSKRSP

T2: native human IP-10 (hIP-10) (human, UniProt P02778 22-98)
T2 sequence (looked up): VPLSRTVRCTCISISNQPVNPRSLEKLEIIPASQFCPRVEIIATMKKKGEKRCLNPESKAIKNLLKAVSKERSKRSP

T3: recombinant human IP-10 (hIP-10) (human, UniProt P02778 22-98)
T3 sequence (looked up): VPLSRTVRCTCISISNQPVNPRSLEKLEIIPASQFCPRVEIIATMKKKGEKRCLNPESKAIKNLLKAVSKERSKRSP

T4: NusA-mouse IP-10 fusion protein (mouse, UniProt P17515 22-98)
T4 construct: mature; not shown: NusA fusion partner encoded by expression plasmid pET43 (Novagen); vector-encoded linker with Factor X protease cleavage site
T4 sequence (looked up): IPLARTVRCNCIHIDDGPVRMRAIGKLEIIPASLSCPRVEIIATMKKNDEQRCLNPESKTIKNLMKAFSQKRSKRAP

T5: NusA-hIP-10 fusion protein (human, UniProt P02778 22-98)
T5 construct: mature; not shown: NusA fusion partner encoded by expression plasmid pET43 (Novagen); vector-encoded linker with Factor X protease cleavage site at the C-terminus of NusA; AviTag biotinylation site (Avidity) at the C-terminus of the chemokine
T5 sequence (looked up): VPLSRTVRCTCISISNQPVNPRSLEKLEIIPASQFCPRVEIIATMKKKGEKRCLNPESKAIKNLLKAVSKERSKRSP

T6: NusA-rat IP-10 fusion protein (rat, UniProt P48973 22-98)
T6 construct: mature; not shown: NusA fusion partner encoded by expression plasmid pET43 (Novagen); vector-encoded linker with Factor X protease cleavage site
T6 sequence (looked up): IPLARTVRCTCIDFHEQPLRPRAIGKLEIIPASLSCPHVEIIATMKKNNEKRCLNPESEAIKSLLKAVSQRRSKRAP

T7: NusA-cynomolgus IP-10 fusion protein (cynomolgus, UniProt A0A2K5WKN6 22-98)
T7 construct: mature; not shown: NusA fusion partner encoded by expression plasmid pET43 (Novagen); vector-encoded linker with Factor X protease cleavage site
T7 sequence: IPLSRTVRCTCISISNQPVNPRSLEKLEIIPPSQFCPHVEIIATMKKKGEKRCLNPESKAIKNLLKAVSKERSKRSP


Assays:
[1] = target: T1, hIP-10 immobilized on glycosaminoglycan …; experiment: capture assay: IgG captured on coated anti-human Fc, FITC-heparin pre-incubated with hIP-10 added, revealed with HRP-coupled anti-FITC Fab
Procedure: As with many chemokines, hIP-10 is able to oligomerize and bind to glycosaminoglycans (GAG) expressed at surface of cells such as endothelial cells. In order to make sure that the antibodies were able to bind to hIP-10 in this context, they were tested in the following assay. Maxisorb 96 well plates were coated with anti-human Fc (Jackson, West Grove, Pa.) as capturing reagent for the human IgG to be tested. FITC-labeled heparin (Sigma, St. Louis, Mo.) was used as a prototypic GAG and was incubated with hIP-10 before addition to the captured anti-hIP10 antibodies. […] As shown in FIG. 4 some antibodies were able to bind hIP-10 when bound to GAG whereas others were unable to do so probably because their epitope on hIP-10 was no longer accessible within the oligomeric structure.

[2] = target: T2, native human IP-10 (hIP-10); experiment: cell-based or functional assay
[3] = target: T3, recombinant human IP-10 (hIP-10); experiment: cell-based or functional assay
[4] = target: T3, recombinant human IP-10 (hIP-10); experiment: SPR (Biacore 2000): IgG1 captured on anti-human IgG, IP-10 in solution, 25 C, 1:1 Langmuir fit
Procedure: (§1) 200RU (response unit) of a goat anti-human polyclonal IgG (ahIgG; Biacore AB, Uppsala, Sweden) were immobilized by EDC/NHS chemistry on a C1 Biacore chip. […] The surface was regenerated after each cycle by injection of 10 mM glycine pH=1.5 at 30 μL/min, for 30s followed by 1 min. of stabilization time in HBS-EP buffer.
(§2) Binding was measured by passing either hIP-10 (Peprotech, Rocky Hill N.J.) or a NusA-hIP-10 fusion protein at the following concentrations: 34.7 nM, 11.6 nM, 3.85 nM, 1.28 nM, 0.428 nM, 0.142 nM and 0 nM. All solutions were diluted in HBS-EP buffer (Biacore AB, Uppsala, Sweden). Injection was performed at 50 μl/min for 3 min. followed by 12 min. of dissociation time and the temperature was set at 25° C. […] Very similar values were obtained using rhIP-10 or the NusA-hIP-10 fusion, but better response signals were obtained with the fusion protein due to its larger size that induces a better response on the Biacore.

[5] = target: T4, NusA-mouse IP-10 fusion protein; experiment: capture ELISA: NI-0801 coated, concentration range of NusA fusion protein, revealed with anti-NusA antibody
Excerpt: (§3) Briefly, IP-10 cloned from cDNA isolated from mouse, rat, rabbit and cynomolgus as well as a panel of human chemokines was expressed and purified as described in Example 1.

[6] = target: T5, NusA-hIP-10 fusion protein; experiment: as above
Excerpt: as §3

[7] = target: T6, NusA-rat IP-10 fusion protein; experiment: as above
Excerpt: as §3

[8] = target: T7, NusA-cynomolgus IP-10 fusion protein; experiment: as above
Excerpt: as §3

[9] = target: T3, recombinant human IP-10 (hIP-10); experiment: SPR (Biacore 2000)
Procedure: as §1, §2

Binder	binding result [1]	Chemotaxis IC50 (nM); native hIP-10 at 0.6 nM [2] [nM]	Calcium flux IC50 (nM); 10 nM rhIP-10 [3] [nM]	Chemotaxis IC50 (nM); 1 nM rhIP-10 [3] [nM]	Kd [4] [nM]	binding result [5]	EC50 (read off the curve) [6] [nM]	binding result [7]	EC50 (read off the curve) [8] [nM]	fold improvement of affinity over CC21R3P1_F1 [9] [fold]	Chemotaxis IC50 (nM); 0.2 nM rhIP-10 [3] [nM]
CC21R3P1_A2, IgG1 format (antibody, V domains shown) VH: QLVESGGGLIQPGGSLRLSCAASGFSVSDTYMNWVRQAPGKGLEWVSSIYSDDSTYYADSVKGRFTISRDNSKNTLFLQINSLRAEDTAVYYCARDKEYVTSTGGAYYYFYYMDVWGQGTLVTVSS VL: not shown	no binding	6.2	9.8	3.2							
CC21R3P1_F1, IgG1 format (antibody, V domains shown) VH: QVQLVESGGGVVQPGRSHTLSCAASGFAFKNSGIHWVRQAPGKGLEWVAVISYDGSNKFYADSVKGRFTISRDNSQNTVYLQMTDLRPDDTAVYYCARDGSESEYLDYWGKGTLVTVSS VL: NFMLTQPHSVSESPGKTVTISCTGSGGSIDRNYVQWYQQRPGSAPITVIYEDNQRPSGVPDRFSGSIDSSSNSASLTISGLRTDDEADYYCQSYDSINLWVFGGGTKVTVL		11	9.8	3	9.2						
NI-0801, IgG1 format (antibody, V domains shown, Claims 7 and 21 swap the heavy and light chain numbers) VH: QVQLVESGGGVVQPGRSLRLSCAASGFTFSNSGIHWVRQAPGKGLEWVAVISYDGSNKYYADSVKGRFTISRDNSKNTLYLQMNSLRAEDTAVYYCARLRDNAEYTDYWGQGTLVTVSS VL: NFMLTQPHSVSESPGKTVTISCTGSGGSIASNYVQWYQQRPGSSPTTVIYEDNQRPSGVPDRFSGSIDSSSNSASLTISGLKTEDEADYYCQSYDPLPVWVFGGGTKLTVLG		0.58	6.3		0.109	no binding (tested: about 2e-7 M)	~3	no binding (tested: about 2e-7 M)	~1	90	0.24
CB21R3P6_G7, IgG1 format (antibody, V domains shown) VH: QVQLVQSGAEVKKPGSSVTVSCKASGGTFSSFSITWLRQAPGQGLEWMGEITPMFGIANYAQKFQGRVTISADESTSTAYMELSGLTSEDTAMYYCARDGRFDVSDLLTDKPKVTINYNGMDVWGQGTLVTVSS VL: QSVLTQPPSASGTPGQRVTISCSGSSSNIGSNTVNWYQRLPGAAPQLLIYNNDQRPSGIPDRFSGSKSGTSGSLVISGLQSEDEADYYCASWDDSLNGRVFGGGTKLTVL	no binding	7.8	6.2	8.8							
